Test results: patent US20150065376A1, “EXPRESSION CONSTRUCTS ENCODING G PROTEIN COUPLED RECEPTORS AND METHODS OF USE THEREOF” (priority 2013, published 2015)
Each block holds one substance with its values, some of them ahead of it.

Assays:
Cxcr4b = conditions: value used for graph of free Cxcr4b versus free Sdf1, FIG. S3B; read-out: dissociation constant; cited from earlier work
[1] = target: Cxcr4b-Kate2 fusion protein (zebrafish Sdf1-signaling sensor) (zebrafish); experiment: cell-based or functional assay
[2] = target: Cxcr7a (zebrafish CXCR7 ortholog) (zebrafish); experiment: cell-based or functional assay
[3] = target: Cxcr7b (zebrafish CXCR7 ortholog) (zebrafish); experiment: cell-based or functional assay
human CXCR4 = target: T1, human CXCR4 (Homo sapiens, UniProt P61073); experiment: human Sdf1-signaling sensor in Flp-In T-REx 293 cell line (CXCR4-Kate2 internalization); format: cell-based; conditions: Flp-In T-REx 293 cells, tetracycline-induced sensor, within 40 minutes, not in vehicle treated controls
T1 construct: Kate2 (TagRFP2, RFP variant); host or cells: Flp-In T-REx 293 (HEK 293), tetracycline-inducible, cell line number 4
T1 sequence (P61073 whole entry): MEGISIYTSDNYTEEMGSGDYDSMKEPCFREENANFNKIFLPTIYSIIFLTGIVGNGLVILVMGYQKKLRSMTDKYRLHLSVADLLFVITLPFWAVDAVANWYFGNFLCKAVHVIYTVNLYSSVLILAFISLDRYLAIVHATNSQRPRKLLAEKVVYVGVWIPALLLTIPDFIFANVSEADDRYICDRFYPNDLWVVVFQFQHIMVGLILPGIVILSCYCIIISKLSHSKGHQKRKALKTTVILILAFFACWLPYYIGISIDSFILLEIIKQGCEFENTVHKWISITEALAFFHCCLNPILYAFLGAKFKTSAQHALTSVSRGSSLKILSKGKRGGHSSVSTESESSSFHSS
Source text: In order to test whether the human version of the Sdf1-signaling sensor responds to human SDF1 in a similar fashion to that of the fish version of the Sdf1-signaling sensor, the present inventors generated a Flp-In™ T-REx™ 293 cell line that expresses human CXCR4 fused to the RFP variant Kate2 followed by an IRES and a membrane-tethered GFP from a tetracycline-inducible promoter. Because the flippin technology allows one to generate a single copy transgene in a specific genomic location of HEK 293 cells, expression levels from the human Sdf1-signaling sensor are fairly uniform (FIGS. S4A and C).
Human CXCR4-Kate2-IRES-GFP-CaaX was inserted into the FRT sites in the genome of the Flp-In™ T-REx™ cell line using hygromycin selection (Invitrogen). Five different cell lines were established and cell line number 4 was used to characterize the activity of recombinant human SDF1 on the human Sdf1-signaling sensor. Expression of the human Sdf1-signaling sensor was induced using tetracycline and cells were imaged 24 hours after induction of expression using a Leica SP5 II confocal microscope.

sdf1a = experiment: linearity of the Sdf1-signaling sensor, sdf1a morpholino injection; format: in vivo, zebrafish; conditions: increasing amounts of morpholino injected, embryos imaged at 36 hpf, FIG. 3C
Source text: Using ImageJ (NIH), a mask was applied to the GFP channel with a threshold to selectively mark the cell membranes of the cells that comprise the primordium. All values in the GFP and Kate2 channels outside of the mask were discarded and the photon counts from the Kate2 channel were divided by the photon counts from the GFP channel for each voxel to yield a Z-stack in which each value-containing voxel represents the ratio of Kate2 fluorescence to GFP fluorescence on the cell membrane. A custom ImageJ (NIH) macro language script was written in order to automate this analysis. The data was then averaged across the dorsal-ventral axis and placed in 1-micron bins in order to yield 100 data points for still images or 80 data points for time-lapse images that correspond to the first 100 μm or the first 80 μm, respectively, from the front tip of the primordium. […]
Tg(cxcr4b:cxcr4b-kate2-IRES-memGFP) embryos were injected alternately with 0, 0.5, 1.0 and 1.5 nl of 0.025 mM or 0.1 mM sdf1a morpholino solution (Doitsidou et al., 2002). […] Image collection and gradient quantification were performed as described above. The shift of the Sdf1-signaling gradient was determined by fitting the average ratios to a second order polynomial using the least squares regression in ImageJ (NIH) and extracting the y-intercept. […]

Substance: Sdf1: chemokine Sdf1, free ligand binding reversibly to Cxcr4b
Kd (Cxcr4b): 4 nM

average FmemRed/FmemGreen ratio of the Sdf1-signaling sensor in the absence of Sdf1a protein [1]: 2.6
average FmemRed/FmemGreen ratio of the Sdf1-signaling sensor upon global Sdf1a over-expression [1]: 0.2
mean FmemRed/FmemGreen at the leading edge of wild-type primordia, 36 hpf [1]: < 0.6
mean FmemRed/FmemGreen in the rear of wild-type primordia, 36 hpf [1]: 2.3
reduction in the local concentration of signaling competent Sdf1a in the rear of the primordium [2]: 86%
reduction in the steepness of the Sdf1-signaling gradient across the primordium in the absence of cxcr7a activity [2]: 31%
reduction in the local concentration of signaling competent Sdf1a in the rear of the primordium [3]: 86%
reduction in the steepness of the Sdf1-signaling gradient across the primordium in the absence of cxcr7b activity [3]: 40%
Substance: Sdf1a protein (zebrafish chemokine Sdf1a) (ligand)

Substance: Sdf1a-GFP (Sdf1a fused to green fluorescent protein) (ligand)
fraction of total Sdf1a-GFP sequestered in the rear of the primordium [2]: 1%
fraction of total Sdf1a-GFP sequestered in the rear of the primordium [3]: 1%
reduction of Sdf1a-GFP protein levels on the stripe outside the primordium upon Cxcr7b over-expression [3]: 29%

internalization of CXCR4-Kate2 / activation of the human Sdf1-signaling sensor (human CXCR4): induces internalization of CXCR4-Kate2
Substance: recombinant human SDF1: recombinant human chemokine SDF1, ligand of CXCR4
internalization of CXCR4-Kate2 / activation of the human Sdf1-signaling sensor (human CXCR4; listed as Recombinant human SDF1): activates the human version of the Sdf1-signaling sensor

Substance: sdf1a morpholino: translation-blocking morpholino against sdf1a, SEQ ID NO: 69 (Doitsidou et al., 2002) (ATCACTTTGAGATCCATGTTTGCA; all phosphorodiamidate morpholino (PMO))
shift of FmemRed/FmemGreen ratios across the primordium (sdf1a): progressively shifts the FmemRed/FmemGreen ratios across the primordium to higher values
